Data on 1 molecule can be found in PMC11024442, “Lipocalin-type prostaglandin D synthase: a glymphopathy marker in idiopathic hydrocephalus” (Frontiers in Aging Neuroscience, 2024).

The experiment concerns the target T1, human recombinant Tau-441 (human, UniProt P10636-8 1-441).
T1 construct: Commercial recombinant protein; source: bought: WAKO
The experiment is described as follows: SPR; Biacore 2000; recombinant human Δ1–22 L-PGDS amine-coupled to a CM5 chip; Tau-441 flowed at 3, 2 and 1 nM; dissociation on washing with Dulbecco's phosphate-buffered saline; Kd from the sensorgrams with BIAevaluation 3.1. The following applies: both partners purified. (SPR reads the build-up and loss of mass on a sensor chip optically.)

T1 sequence (P10636 other isoform, or with tags, fused parts or gaps): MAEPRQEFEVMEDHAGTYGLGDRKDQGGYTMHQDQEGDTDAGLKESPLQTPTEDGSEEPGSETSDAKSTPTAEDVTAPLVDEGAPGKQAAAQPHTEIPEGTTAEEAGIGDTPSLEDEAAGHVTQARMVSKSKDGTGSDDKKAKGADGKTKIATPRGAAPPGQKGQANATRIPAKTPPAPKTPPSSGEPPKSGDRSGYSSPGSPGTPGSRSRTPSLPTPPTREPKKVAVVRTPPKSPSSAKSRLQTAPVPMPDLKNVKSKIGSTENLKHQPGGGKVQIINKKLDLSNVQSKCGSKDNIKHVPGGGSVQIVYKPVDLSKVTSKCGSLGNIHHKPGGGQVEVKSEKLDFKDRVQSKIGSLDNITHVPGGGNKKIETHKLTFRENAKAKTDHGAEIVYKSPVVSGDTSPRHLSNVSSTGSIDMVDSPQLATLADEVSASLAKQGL

B1: human recombinant Δ1–22 L-PGDS (lipocalin-type prostaglandin D synthase without the signal sequence) (enzyme, UniProt P41222 23-190, looked up)
chain: APEAQVSVQPNFQQDKFLGRWFSAGLASNSSWLREKKAALSMCKSVVAPATDGGLNLTSTFLRKNQCETRTMLLQPAGSLGSYSYRSPHWGSTYSVSVVETDYDQYALLYSQGSKGPGEDFRMATLYSRTQTPRAELKEKFTAFCKAQGFTEDTIVFLPQTDKCMTEQ
notes: Cloned into pGEX-2T as a GST fusion and cut with thrombin; also called recombinant human ∆1–22 L-PGDS; recombinant human L-PGDS; source: E. coli BL21 (DE3), purified (glutathione-Sepharose 4B, thrombin digestion, gel filtration on HiLoad Superdex 75)
What is called Kd is the free concentration of one partner at which half of the binding sites on the other are occupied at equilibrium, for simple one-to-one binding. For B1, the dissociation constant Kd stood at 910 µM.
